This note sets out measurements from patent US20030082561, “Zinc finger domain recognition code and uses thereof” (published 2003).

In this data set the target is AL1 ZFP (Clone 1) (artificial). Put plainly: EMSA; significant binding at 14-35 nM; text prints SEQ ID NO 27 for the bound probe, apparently meaning the G (wild-type) probe SEQ ID NO 26. Conditions: tags: three Sp1C domain 2 framework fingers, pET21-a, E. coli BL21(DE3)pLysS; label: 5'-32P. A general note: In EMSA bound probe runs differently from free probe, usually more slowly.
Chain of AL1 ZFP (Clone 1) (artificial) (chain, as listed by the source): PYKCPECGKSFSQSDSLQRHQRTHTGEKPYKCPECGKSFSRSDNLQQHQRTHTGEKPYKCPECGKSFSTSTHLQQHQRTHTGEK

B1: AL1 probe G (wild type) (dsDNA)
DNA 1: TATATATAAGTAAGGTAGTATATATA
DNA 2: TATATATACTACCTTACTTATATATA
Turning to B1, the binding result was “binds”.
